In the test the target is D76N-β2-microglobulin (UniProt P61769).
Chain of UniProt P61769 (P61769 other isoform, or with tags, fused parts or gaps D76N | D76N): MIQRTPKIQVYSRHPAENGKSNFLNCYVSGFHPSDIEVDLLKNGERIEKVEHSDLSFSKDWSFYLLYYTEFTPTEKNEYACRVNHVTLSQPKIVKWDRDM

As to “crosslinked dimers (XL-Ds) of D76N-β2m/S57C (from UniProt P61769 21-119) (complex)”, the ThT fluorescence kinetics of seeded fibril growth of 20 μM D76N-β2m with 3% or 10% (w/w) fibril seeds and 10% (w/w) XL-Ds: fold increase in T (half) worked out at 1.6 fold.
